Measurements published in paper PMC6737903, “The Hox gene Abdominal-B uses Doublesex^F as a cofactor to promote neuroblast apoptosis in the Drosophila central nervous system” (Development (Cambridge, England), 2019).

Target: T1, His-Dsx^CR (Dsx common region, aa residues 1-397) (Drosophila, UniProt P23023 1-397)
T1 construct: Doublesex (Dsx), Drosophila, region common to the male and female isoforms, aa residues 1-397; source: bacterially expressed (0.5 mM IPTG, 18°C, 2 h), cell lysate for the pulldown; purified and dialyzed for EMSA; not shown: His tag, N-terminal, kept
Assay: pull-down; GST pulldown: GST-tagged AbdB proteins or GST alone as bait; bacterially expressed His-tagged Dsx proteins as input cell lysates; Western blot; three repetitions
Conditions: one partner purified

T1 sequence (P23023 1-397): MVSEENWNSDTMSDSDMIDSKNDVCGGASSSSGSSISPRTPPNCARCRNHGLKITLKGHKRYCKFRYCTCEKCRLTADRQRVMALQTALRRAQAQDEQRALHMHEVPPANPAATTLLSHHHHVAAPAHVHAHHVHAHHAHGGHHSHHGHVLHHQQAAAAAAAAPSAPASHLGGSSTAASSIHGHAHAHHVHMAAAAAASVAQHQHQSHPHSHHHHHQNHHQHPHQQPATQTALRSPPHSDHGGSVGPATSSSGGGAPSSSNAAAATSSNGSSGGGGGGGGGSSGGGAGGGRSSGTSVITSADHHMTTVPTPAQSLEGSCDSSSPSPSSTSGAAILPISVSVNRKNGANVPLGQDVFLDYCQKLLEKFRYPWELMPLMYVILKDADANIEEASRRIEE

B1: GST-AbdB-N (truncated version of AbdB-r, aa residues 89-270) (domain or fragment)
chain: not shown
notes: Abdominal-B (AbdB), Drosophila, regulatory isoform AbdB-r, aa residues 89-270; printed length of AbdB-r by the limits: 270; numbers count on: the AbdB-r isoform; The results say that AbdB-N lacks the first 89 amino acids; the methods give aa residues 89-270; also called GST-tagged AbdB-N; source: bacterially expressed (0.5 mM IPTG, 18°C, 2 h); GST-tagged bait in the pulldown; used as protein (50 …)
binding result: binds
